US20210087286A1 (Amgen, published 2021)
Residue numbers refer to the chain shown, from its start. Values belong to the binder of their own block, whether it stands above or below them.

How the values were obtained:
human GIPR = biological target: T1, human GIPR (human, UniProt P48546 22-466); experiment: cell-based or functional assay
T1 sequence: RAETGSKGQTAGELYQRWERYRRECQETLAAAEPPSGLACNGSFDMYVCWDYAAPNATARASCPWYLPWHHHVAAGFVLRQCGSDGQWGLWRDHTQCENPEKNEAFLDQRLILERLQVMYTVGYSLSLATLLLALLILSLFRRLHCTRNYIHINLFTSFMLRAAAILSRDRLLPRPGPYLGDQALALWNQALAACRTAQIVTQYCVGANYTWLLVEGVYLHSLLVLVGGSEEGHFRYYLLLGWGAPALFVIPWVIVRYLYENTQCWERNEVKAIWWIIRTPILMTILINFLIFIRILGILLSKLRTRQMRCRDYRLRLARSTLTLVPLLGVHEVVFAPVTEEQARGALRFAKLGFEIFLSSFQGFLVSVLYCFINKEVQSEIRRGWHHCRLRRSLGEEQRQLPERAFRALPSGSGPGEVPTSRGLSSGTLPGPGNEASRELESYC

huGIPR ECD = biological target: T2, huGIPR ECD (human, UniProt P48546 21-129, limits assumed); experiment: SPR (Biacore T200), mAb captured via goat anti-huFc, 200 nM huGIPR ECD analyte
T2 construct: Soluble analyte of the Biacore assay; also called human GIPR extracellular domain
T2 sequence: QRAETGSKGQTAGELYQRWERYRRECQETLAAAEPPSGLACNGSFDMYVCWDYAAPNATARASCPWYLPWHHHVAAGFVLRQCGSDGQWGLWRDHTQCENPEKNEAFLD
Protocol: Immobilization of Goat-anti-huFc antibody to a S-CM5 sensor chip surface was performed according to manufacturer's instructions. The Biacore instrument running buffer is 0.005% P20/PBS 1×, pH7.4, no calcium chloride, no magnesium chloride. Briefly, carboxyl groups on the sensor chip surfaces were activated by injecting 60 μL of a mixture containing 0.2 M N-ethyl-N′-(dimethylaminopropyl) carbodiimide (EDC) and 0.05 M N-hydroxysuccinimide (NHS). Goat-anti-huFc antibody was diluted in 10 mM sodium acetate, pH 4.0 at 20 μg/ml and injected over the activated chip surface at 30 uL/min for 6 minutes. Excess reactive groups on the surfaces were deactivated by injecting 60 μL of 1 M ethanolamine. Final immobilized level was ˜8000 resonance units (RU).
Binding assays were carried out on the immobilized goat anti-huFc antibody surface by Biacore T200. The experiment was performed at 25° C. The instrument running buffer was 0.005% P20/PBS. The goat anti-huFc capture antibody was covalently attached to the sensor chip surface via standard amine coupling to flow cells channel 1-4. The anti-huGIPR antibodies were diluted in sample buffer (0.1 mg/ml BSA, 0.005% P20, PBS) to ˜10 nM then captured to flow cells channel 2, 3, 4. Flow cell channel 1 was as a blank reference surface without injection of anti-huGIPR antibody. The captured antibody response range was ˜250 RU. Then 200 nM huGIPR ECD was injected over the goat anti-huFc antibody captured anti-huGIPR antibody surfaces at flow rate 50 ul/min for 3 minutes. After a 10 minutes dissociation, each surface was regenerated by injecting 10 mM Glycine, pH 1.5 for 30 seconds twice.

cAMP IC50 (human GIPR): 18.6 nM
koff (huGIPR ECD): < 5e-05 s⁻¹
B1: 2G10.330 (antibody, human IgG1, kappa, N297G, V domains shown)
VH: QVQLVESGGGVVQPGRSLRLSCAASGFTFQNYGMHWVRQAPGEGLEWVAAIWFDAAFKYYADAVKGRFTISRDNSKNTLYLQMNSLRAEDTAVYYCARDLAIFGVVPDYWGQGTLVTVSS
VL: EIVMTQSPATLSVSPGERATLSCRASQSVDQHLAWYQQKPGQAPRLLIYQAATRATGIPARFSGSGSGTEFTLTISSLQSEDFAVYYCQQYQNWPLTFGGGTKVEIKR
notes: also called SS-26207

cAMP IC50 (human GIPR): 19.9 nM
koff (huGIPR ECD): < 5e-05 s⁻¹
B2: 2G10.302 (antibody, human IgG1, kappa, N297G, V domains shown)
VH: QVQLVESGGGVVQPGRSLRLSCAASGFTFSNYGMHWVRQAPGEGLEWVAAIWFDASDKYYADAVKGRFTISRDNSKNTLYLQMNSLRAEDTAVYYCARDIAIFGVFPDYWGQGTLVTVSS
VL: B1 VL with D30F, Q31E, Q50E, Q92N
notes: also called SS-26179

cAMP IC50 (human GIPR): 16.9 nM
koff (huGIPR ECD): < 5e-05 s⁻¹
B5: 2G10.304 (antibody, human IgG1, kappa, N297G, V domains shown)
VH: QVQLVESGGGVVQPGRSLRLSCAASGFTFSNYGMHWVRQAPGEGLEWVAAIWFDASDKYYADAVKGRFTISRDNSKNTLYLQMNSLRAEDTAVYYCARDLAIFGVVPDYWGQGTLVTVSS
VL: B1 VL with D30N, Q31R, Q50E
notes: also called SS-26181

cAMP IC50 (human GIPR): 12.9 nM
koff (huGIPR ECD): 6e-05 s⁻¹
B6: 2G10.332 (antibody, human IgG1, kappa, N297G, V domains shown)
VH: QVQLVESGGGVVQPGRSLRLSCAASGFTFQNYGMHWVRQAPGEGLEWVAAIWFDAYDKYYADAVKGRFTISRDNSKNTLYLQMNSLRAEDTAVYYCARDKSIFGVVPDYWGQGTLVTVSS
VL: B1 VL with D30L, Q31S, Q50E, Q92N
notes: also called SS-26209

cAMP IC50 (human GIPR): 29.5 nM
koff (huGIPR ECD): < 5e-05 s⁻¹
B7: 2G10.309 (antibody, human IgG1, kappa, N297G, V domains shown)
VH: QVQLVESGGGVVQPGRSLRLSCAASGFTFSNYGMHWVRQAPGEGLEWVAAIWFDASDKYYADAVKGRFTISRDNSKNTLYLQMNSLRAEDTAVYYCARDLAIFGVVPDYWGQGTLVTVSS
VL: B1 VL with D30E, Q31R, Q50E
notes: also called SS-26186

cAMP IC50 (human GIPR): 7.46 nM
koff (huGIPR ECD): < 5e-05 s⁻¹
B16: 2G10.321 (antibody, human IgG1, kappa, N297G, V domains shown)
VH: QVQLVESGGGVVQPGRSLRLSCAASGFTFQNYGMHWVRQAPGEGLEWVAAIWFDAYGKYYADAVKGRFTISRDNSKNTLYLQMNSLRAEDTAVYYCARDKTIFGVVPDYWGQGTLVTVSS
VL: B1 VL with D30N, Q31R, Q50E, Q92N, N93Q

cAMP IC50 (human GIPR): 22.6 nM
koff (huGIPR ECD): 7e-05 s⁻¹
B18: 2G10.339 (antibody, human IgG1, kappa, N297G, V domains shown)
VH: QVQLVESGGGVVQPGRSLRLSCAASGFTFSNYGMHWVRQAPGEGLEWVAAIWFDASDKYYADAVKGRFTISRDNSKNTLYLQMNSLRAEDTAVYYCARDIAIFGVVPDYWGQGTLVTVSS
VL: B1 VL with D30F, H32N, Q92N, N93Q

cAMP IC50 (human GIPR): 12.1 nM
koff (huGIPR ECD): < 5e-05 s⁻¹
B20: 2G10.333 (antibody, human IgG1, kappa, N297G, V domains shown)
VH: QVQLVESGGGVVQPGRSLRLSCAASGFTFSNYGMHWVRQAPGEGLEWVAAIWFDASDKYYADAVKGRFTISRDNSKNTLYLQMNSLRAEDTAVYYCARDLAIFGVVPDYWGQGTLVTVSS
VL: B1 VL with D30S, Q31R, Q50E, N93H
notes: also called SS-26210

More lines, now with the values behind:

B3: 2G10.319 (antibody, human IgG1, kappa, N297G, V domains shown)
VH: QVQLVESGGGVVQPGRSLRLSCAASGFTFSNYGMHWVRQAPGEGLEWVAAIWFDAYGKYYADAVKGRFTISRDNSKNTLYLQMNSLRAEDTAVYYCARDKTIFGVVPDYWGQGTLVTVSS
VL: B1 VL with D30F, Q31R, Q50E
cAMP IC50 (human GIPR): 7.9 nM
koff (huGIPR ECD): 6e-05 s⁻¹

B4: 2G10.315 (antibody, human IgG1, kappa, N297G, V domains shown)
VH: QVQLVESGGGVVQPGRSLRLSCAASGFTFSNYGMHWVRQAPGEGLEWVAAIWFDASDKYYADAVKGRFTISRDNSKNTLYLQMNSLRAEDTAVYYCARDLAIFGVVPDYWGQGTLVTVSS
VL: B1 VL with D30L, Q31T, Q50E
notes: also called SS-26192
cAMP IC50 (human GIPR): 22 nM
koff (huGIPR ECD): < 5e-05 s⁻¹

B8: 2G10.306 (antibody, human IgG1, kappa, N297G, V domains shown)
VH: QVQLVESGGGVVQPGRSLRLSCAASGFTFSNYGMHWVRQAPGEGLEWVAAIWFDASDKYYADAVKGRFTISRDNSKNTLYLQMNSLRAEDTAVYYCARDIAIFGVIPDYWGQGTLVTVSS
VL: B1 VL with D30L, Q31T, Q50E
notes: also called SS-26183
cAMP IC50 (human GIPR): 20.7 nM
koff (huGIPR ECD): < 5e-05 s⁻¹

B9: 2G10.326 (antibody, human IgG1, kappa, N297G, V domains shown)
VH: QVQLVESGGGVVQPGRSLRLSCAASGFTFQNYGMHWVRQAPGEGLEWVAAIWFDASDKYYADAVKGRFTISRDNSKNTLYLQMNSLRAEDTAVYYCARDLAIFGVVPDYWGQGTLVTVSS
VL: B1 VL with D30L, Q31S, Q50E, N93Q
cAMP IC50 (human GIPR): 26.6 nM
koff (huGIPR ECD): 6e-05 s⁻¹

B10: 2G10.307 (antibody, human IgG1, kappa, N297G, V domains shown)
VH: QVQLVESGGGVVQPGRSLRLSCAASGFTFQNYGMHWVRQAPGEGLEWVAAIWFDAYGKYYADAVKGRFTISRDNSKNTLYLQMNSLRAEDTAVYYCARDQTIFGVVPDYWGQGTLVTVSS
VL: B1 VL with Q31R, Q50E, Q92N, N93Q
notes: also called SS-26184
cAMP IC50 (human GIPR): 17.4 nM
koff (huGIPR ECD): 6e-05 s⁻¹

B11: 2G10.335 (antibody, human IgG1, kappa, N297G, V domains shown)
VH: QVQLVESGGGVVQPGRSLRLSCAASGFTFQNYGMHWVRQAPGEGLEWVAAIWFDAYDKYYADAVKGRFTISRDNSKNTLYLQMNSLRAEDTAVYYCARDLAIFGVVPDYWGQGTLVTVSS
VL: B1 VL with D30T, Q31S, Q50E, Q92N, N93Q
notes: also called SS-26212
cAMP IC50 (human GIPR): 25.9 nM
koff (huGIPR ECD): 6e-05 s⁻¹

B12: 2G10.336 (antibody, human IgG1, kappa, N297G, V domains shown)
VH: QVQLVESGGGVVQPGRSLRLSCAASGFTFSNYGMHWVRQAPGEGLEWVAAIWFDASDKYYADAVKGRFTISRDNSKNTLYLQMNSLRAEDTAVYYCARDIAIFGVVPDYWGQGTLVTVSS
VL: B1 VL with D30Q, Q31S, Q50E
notes: also called SS-26213
cAMP IC50 (human GIPR): 29.6 nM
koff (huGIPR ECD): 0.0002 s⁻¹

B13: 2G10.328 (antibody, human IgG1, kappa, N297G, V domains shown)
VH: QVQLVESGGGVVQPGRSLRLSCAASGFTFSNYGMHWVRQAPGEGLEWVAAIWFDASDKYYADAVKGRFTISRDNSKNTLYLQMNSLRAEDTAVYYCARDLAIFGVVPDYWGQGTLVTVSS
VL: B1 VL with D30S, Q31E, Q50E
cAMP IC50 (human GIPR): 24.4 nM
koff (huGIPR ECD): 7e-05 s⁻¹

B14: 2G10.340 (antibody, human IgG1, kappa, N297G, V domains shown)
VH: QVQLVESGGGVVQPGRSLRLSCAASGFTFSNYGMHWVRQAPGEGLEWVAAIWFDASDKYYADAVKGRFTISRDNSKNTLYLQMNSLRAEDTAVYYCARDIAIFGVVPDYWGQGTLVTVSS
VL: B1 VL with D30H, Q31T, H32N, Q50N
cAMP IC50 (human GIPR): 25.9 nM
koff (huGIPR ECD): 6e-05 s⁻¹

B15: 2G10.308 (antibody, human IgG1, kappa, N297G, V domains shown)
VH: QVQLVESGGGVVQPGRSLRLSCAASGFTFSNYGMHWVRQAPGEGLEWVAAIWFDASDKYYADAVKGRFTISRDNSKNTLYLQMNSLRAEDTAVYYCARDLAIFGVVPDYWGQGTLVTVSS
VL: B1 VL with D30F, Q31S, Q50E, N93Q
notes: also called SS-26185
cAMP IC50 (human GIPR): 18.3 nM
koff (huGIPR ECD): < 5e-05 s⁻¹

B17: 2G10.303 (antibody, human IgG1, kappa, N297G, V domains shown)
VH: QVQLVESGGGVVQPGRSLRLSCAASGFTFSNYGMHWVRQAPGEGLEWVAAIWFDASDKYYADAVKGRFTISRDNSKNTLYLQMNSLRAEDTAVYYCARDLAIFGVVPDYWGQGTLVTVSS
VL: B1 VL with Q31R, Q50E
notes: also called SS-26180
cAMP IC50 (human GIPR): 23.1 nM
koff (huGIPR ECD): 7e-05 s⁻¹

B19: 2G10.325 (antibody, human IgG1, kappa, N297G, V domains shown)
VH: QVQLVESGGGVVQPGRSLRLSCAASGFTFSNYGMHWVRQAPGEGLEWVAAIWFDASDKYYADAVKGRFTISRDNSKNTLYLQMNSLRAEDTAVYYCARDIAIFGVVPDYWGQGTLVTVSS
VL: B1 VL with D30F, Q31E, Q50E, Q92N, N93Q
cAMP IC50 (human GIPR): 26.2 nM
koff (huGIPR ECD): < 5e-05 s⁻¹
